Measurements from paper PMC9452770.

Molecular target: VaERF16-GFP (Vitis amurensis 'Shuang You')

- dual-luciferase assay in tobacco leaves: activation of the VaPDF1.2 promoter (LUC/REN) by 62-SK-VaERF16 and 62-SK-VaMYB306 co-expressed (untagged full-length effectors): 3.5 fold
Substance: VaMYB306-HA (natural protein)
